The record followed here is patent CN110885376A (SHANGHAI NOVAMAB BIOPHARMACEUTICALS CO LTD, dated 2020).

This test concerns the target T1, CD20 (UniProt P11836 1-297, limits assumed).
T1 construct: whole, on cells; Endogenous CD20 of Raji cells; also called 白细胞分化抗原20; 细胞表面CD20
T1 sequence (looked up): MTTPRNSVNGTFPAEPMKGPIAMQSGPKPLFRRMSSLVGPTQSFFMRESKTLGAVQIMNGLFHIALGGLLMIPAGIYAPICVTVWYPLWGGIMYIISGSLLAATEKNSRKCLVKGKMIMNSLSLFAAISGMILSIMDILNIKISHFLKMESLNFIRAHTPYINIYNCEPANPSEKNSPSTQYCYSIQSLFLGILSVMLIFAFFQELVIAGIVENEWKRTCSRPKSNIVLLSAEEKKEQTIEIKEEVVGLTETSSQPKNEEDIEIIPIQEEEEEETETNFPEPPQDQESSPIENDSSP
As to the kind of experiment: flow cytometry on Raji cells (CD47 first blocked with Nb1902), anti-hFc-FITC.

The EC50 is the concentration at which the effect is half-maximal.

B1: 利妥昔单抗 (antibody, human IgG1, kappa, L234A L235A, V domains shown)
VH: QVQLQQPGAELVKPGASVKMSCKASGYTFTSYNMHWVKQTPGRGLEWIGAIYPGNGDTSYNQKFKGKATLTADKSSSTAYMQLSSLTSEDSAVYYCARSTYYGGDWYFNVWGAGTTVTVSA
VL: QIVLSQSPAILSASPGEKVTMTCRASSSVSYIHWFQQKPGSSPKPWIYATSNLASGVPVRFSGSGSGTSYSLTISRVEAEDAATYYCQQWTSNPPTFGGGTKLEIKR
notes: also called 对照抗体利妥昔; rituximab
For the molecule B1, the EC50 was determined as 5.67 µg/mL.
